Measured values: paper PMC3466176, “Aminopropyltransferases Involved in Polyamine Biosynthesis Localize Preferentially in the Nucleus of Plant Cells” (PLoS ONE, 2012)

B1: His-tagged recombinant spermidine synthase 1 (SPDS1) (enzyme, Arabidopsis thaliana, UniProt Q9ZUB3 1-334, looked up)
chain: MDAKETSATDLKRPREEDDNGGAATMETENGDQKKEPACFSTVIPGWFSEMSPMWPGEAHSLKVEKVLFQGKSDYQDVIVFQSATYGKVLVLDGVIQLTERDECAYQEMITHLPLCSIPNPKKVLVIGGGDGGVLREVARHASIEQIDMCEIDKMVVDVSKQFFPDVAIGYEDPRVNLVIGDGVAFLKNAAEGSYDAVIVDSSDPIGPAKELFEKPFFQSVARALRPGGVVCTQAESLWLHMDIIEDIVSNCREIFKGSVNYAWTSVPTYPSGVIGFMLCSTEGPDVDFKHPLNPIDESSSKSNGPLKFYNAEIHSAAFCLPSFAKKVIESKAN
notes: Arabidopsis spermidine synthase 1 (SPDS1, At1g23820); The insert has no stop codon, so a C-terminal extension from the vector is likely (surmised); also called recombinant His-tagged aminopropyltransferase
B2: His-tagged recombinant spermine synthase (SPMS) (enzyme, Arabidopsis thaliana, UniProt Q94BN2 1-359, looked up)
chain: MEGDVGIGLVCQNTMDGKASNGNGLEKTVPSCCLKAMACVPEDDAKCHSTVVSGWFSEPHPRSGKKGGKAVYFNNPMWPGEAHSLKVEKVLFKDKSDFQEVLVFESATYGKVLVLDGIVQLTEKDECAYQEMIAHLPLCSISSPKNVLVVGGGDGGVLREISRHSSVEVIDICEIDKMVIDVSKKFFPELAVGFDDPRVQLHIGDAAEFLRKSPEGKYDAIIVDSSDPVGPALALVEKPFFETLARALKPGGVLCNMAESMWLHTHLIEDMISICRQTFKSVHYAWSSVPTYPSGVIGFVLCSTEGPAVDFKNPINPIEKLDGAMTHKRELKFYNSDMHRAAFALPTFLRREVASLLAS
notes: Arabidopsis spermine synthase (SPMS, At5g53120); The Protease 3C site lies before the start ATG, and no cleavage is reported; The insert has no stop codon, so a C-terminal extension from the vector is likely (surmised); also called recombinant His-tagged aminopropyltransferase
B3: His-tagged recombinant spermidine synthase 2 (SPDS2) (enzyme, Arabidopsis thaliana, UniProt O48661 1-340, looked up)
chain: MSSTQEASVTDLPVKRPREAEEDNNGGAMETENGGGEIKEPSCMSSIIPGWFSEISPMWPGEAHSLKVEKILFQGKSDYQDVIVFQSATYGKVLVLDGVIQLTERDECAYQEMITHLPLCSISNPKKVLVIGGGDGGVLREVARHSSVEQIDICEIDKMVVDVAKQYFPNVAVGYEDPRVNLIIGDGVAFLKNAAEGTYDAVIVDSSDPIGPAKELFEKPFFESVNRALRPGGVVCTQAESLWLHMDIIEDIVSNCRDIFKGSVNYAWTSVPTYPSGVIGFMLCSSEGPQVDFKKPVSLIDTDESSIKSHCPLKYYNAEIHSAAFCLPSFAKKVIDSKAN
notes: Arabidopsis spermidine synthase 2 (SPDS2, At1g70310); The Protease 3C site lies before the start ATG, and no cleavage is reported; The insert has no stop codon, so a C-terminal extension from the vector is likely (surmised); also called recombinant His-tagged aminopropyltransferase

Target: the molecule itself
Assay: SEC; 50 to 100 µg of each affinity purified His-tagged enzyme alone on Superdex 200 10/300 GL, 0.2 mL/min, 20 mM Tris-HCl pH 7.6, 150 mM NaCl; fractions followed by absorbance at 280 nm

Stoichiometry N, 2:
B1
B2
B3
